Legend:
[1] = system: G. piotii strain Gv_17; test: Quantitative reduction in viable CFU assay in bacterial suspension; assay type: cell-based, Gardnerella piotii; settings: 5 hours, pH 5.0, anaerobic, 10 ul endolysin (0.2 mg/ml where possible) + 90 ul 5e7 CFU/ml, average of triplicate
Procedure: The lysis activity on the four main species of Gardnerella of 91 constructs (natural and domain-swapped endolysins) was quantitatively assessed using the method described in Reference Example 2. Briefly, 90 ul 5e7 CFU/ml of the indicated strain were incubated for 5 hours at pH 5.0 under anaerobic conditions with 10 ul endolysin (concentration adjusted to 0.2 mg/ml where possible, see Table 4).
The results are shown in FIGS. 8A to 8D together with Tables 5A to 5C. In FIGS. 8A to 8D, the logarithmic Y axis depicts the count of surviving cells. The dotted line indicates the limit of detection (LOD) given by plating of 2 ul of the reaction mix (500 CFU/ml). Each combination of the natural 10 H-domains and the natural 9 B-regions was assessed, including the natural endolysins (H1B1, H2B2, H3B3, etc.), plus H6B6. […] The activity of each construct was measured on each of the 4 main Gardnerella species G. vaginalis sensu stricto, G. leopoldii, G. piotii, and G. swidsinkii. All conditions have been measured in triplicate. The survival after 5 hours incubation at pH 5.0 under anaerobic conditions with endolysins vs. buffer was measured by quantitative plating. The values indicate the log 10 of the ratio of surviving CFU for treated vs. untreated cells. The average of the triplicate measurements is used. In tables 5A and 5B, high negative log 10 values, e.g. −6.7, −5.5, −4.8 etc. are associated with high enzymatic activity, while log 10 values closer to zero or even positive log 10 values are associated with low or no enzymatic activity. […] Inversely, a reduction value of −3.7 means a 10^3.7-fold (=5012-fold) reduction of viable CFU in treated sample vs. untreated control.
(§1) Gardnerella cells were recovered from cryo stock by plating on Chocolate Agar plates (Beckton Dickinson) and incubating for 48 h at 37° C. under anaerobic conditions. For Lactobacilli, BD Schaedler/5% sheep blood agar plates were used instead. Colonies were scraped from the plate, resuspended in Hardy Broth or NYC-III-HS-5.0 at the pH as indicated, and the suspension adjusted to OD (610 or 620 nm as indicated) 0.1. It has to be noted that two Tecan Microplate readers, having respectively a 610 nm or 620 nm filter, have been used interchangeably in the experiments. Although it doesn't make any difference for the experiments, the exact wavelength used is specified in each example. If not stated otherwise, 90 μl cell suspension was mixed with 10 μl endolysin solution, for the different species/endolysin combinations, in 384-well plates. OD(610-620 nm as indicated) was measured at the beginning of the reaction and at the end, either as two measurement points or as a continuous kinetic in a Tecan F200 Microplate reader. The reactions were incubated for 5 hours (or otherwise the time indicated) at 37° C. under anaerobic, micro-aerophilic or aerobic conditions as indicated. Anaerobic conditions intend that oxygen was fully depleted from the container in which the bacteria are incubated (Sigma-Aldrich anaerobic jar or sealable lunch box) with an anaerobic sachet, and the lack of oxygen was confirmed with an anaerobic indicator inside the container. Where micro-aerophilic conditions are indicated, the candle-in-a-jar method was used (tea candle lit in an appropriate sealable container, which reduces oxygen levels until the flame dies out). Then each well was diluted in 5 steps (10^−1 to 10^−5) using 96-U-well bottom plates, and 2 μl of each dilution of each reaction mix are plated on BD Chocolate agar plates or BD Schaedler/5% sheep blood agar plates for Gardnerella and Lactobacilli, respectively, for detecting and quantifying surviving CFU. Detection plates were incubated at 37° C. for 48 hours under anaerobic conditions.

[2] = system: Gardnerella cells; test: Turbidity reduction (OD) assay of Gardnerella suspensions; assay type: cell-based; settings: Gv_10 pH 6.0, Gv_17 pH 7.0, Gv_23 pH 7.4; aerobic, room temperature; vs buffer
Procedure: FIGS. 4A to 4C show three enzymatic activity assays where the enzymatic activity of natural Gardnerella prophage endolysins of the present disclosure is measured by detecting the change in turbidity of a suspension of Gardnerella cells. In FIG. 4A, the enzymatic activity of the endolysins is measured by detecting the change in turbidity of a suspension of the G. leopoldii strain Gv_10 at pH 6.0. In FIG. 4B, the enzymatic activity of the endolysins is measured by detecting the change in turbidity of a suspension of the G. piotii strain Gv_17 at pH 7.0. In FIG. 4C, the enzymatic activity of the endolysins is measured by detecting the change in turbidity of a suspension of the G. swidsinskii strain Gv_23 at pH 7.4. Treatment was conducted in a medium adjusted to the appropriate pH in a photometric cuvette against buffer. Then, the change in turbidity was assessed by measuring the optical density (OD) at 600 nm. As a result, the drop in turbidity was more pronounced for the endolysin treated groups than for the buffer, indicating enzymatic activity.
To test the activity of the purified endolysins, the turbidity change of Gardnerella suspensions (see Table 2) was measured at 610-620 nm using essentially the method described in Reference Example 2, where 95 ul of bacterial suspension in Hardy Broth at the indicated pH was mixed with 5 ul of endolysin solution in a photometric cuvette under aerobic conditions at room temperature. In turbidity reduction assays, a decrease in light scattering (i.e., turbidity reduction) of a suspension of live cells can be used in a spectrophotometer to assay the activity of peptidoglycan hydrolases. The reduction in optical density over time (minutes) can be used to calculate a rate of hydrolysis. Results are compared to a “no-enzyme added, buffer only” control preparation treated identically for the same period of time. In this manner, a specific activity of the enzyme preparation can be reported as ΔOD/time/ul lysin protein. […] As explained above, due to the low content of peptidoglycan in the cell wall, the fact that a peptidoglycan-degrading enzyme such as the identified endolysins could efficiently lyse the bacterial cell walls was an unexpected and surprising discovery.
as §1, with “Then each well was diluted in 5 steps (10^−1 to 10^−5) using 96-U-well bottom plates, and 2 μl of each dilution of each reaction mix are plated on BD Chocolate agar plates or BD Schaedler/5% sheep blood agar plates for Gardnerella and Lactobacilli, respectively, for detecting and quantifying surviving CFU. Detection plates were incubated at 37° C. for 48 hours under anaerobic conditions.” left out

| Molecule | log 10 of the ratio of surviving CFU for treated vs. untreated cells [1] | enzymatic activity by drop in turbidity (capacity to lyse Gardnerella cell walls) [2] |
| --- | --- | --- |
| H3B3: natural Gardnerella prophage endolysin from strain Gv18-4 (protein, EL3_strain_Gv18-4) MSKKGIDVSVWQGDIDFNSVKASGVEFVIIRAGYGIGHKDKWFEENYRKAKTAGLDVGSYWYSYASSAGEASEEAQSCVNILSGKSFEYPIYFDLEEKSQLNRGRDFCDSLITSFCNKLEACGYYAGFYTSLSVANNLVSSHVRDRYALWIAQWNTHCSYQGSYGLWQYSSSGSVNGIAGRVDMDYAYVDYPSVIKNAGLNGYQNGGSYTAPQTSSIDEVAREVINGDWGNGNDRKNRLISAGYDYASVQNKVNELLGVKAYRKSVDELAREVIRGTWGNGSMRKHRLTQAGYDYDAVQKRVNELL | −1.5 log 10 | active |
| H1B1: natural Gardnerella prophage endolysin from strain HMP9231 (protein, EL1_strain_HMP9231, natural Gardnerella prophage endolysin from strain HMP9231) MSKKGIDVSEWQGDIDFNAVKASGVEFVIIRAGYGIGCKDKWFEQNYRKAKTAGLDVGAYWYSYANSGFEAAEEAQSLMNMLSGKSFEYPVYFDLEEKSQLNRGRAFCDSLITSFCNKLEACGYYAGFYTSLSTANNLVSAHVRNRYALWIAQWNTHCNYQGSYGLWQYSSNGSVPGVAGRVDMDYAYVDYPSIIKNAGLNGCKNGGSDQAARTSSIDEVAREVINGAWGNGSTRKQRLTSAGYDYASVQNKVNELLGVKACRKSVDELAREVIRGAWGNGSTRKQRLAQAGYDYDTVQKRVNELL | −0.9 log 10 | active |
| H2B2: natural Gardnerella prophage endolysin from strain Gv18-4 (protein, EL2_strain_Gv18-4) MSKRGIDVSEWQGDIDFNAVKASGVEFVIIRAGYGIGCKDKWFEQNYRKAKTCGLDVGAYWYSYANSGFEAAEEAQSCVNMLSGKSFEYPVYFDLEEKSQLNRGRAFCDSLITGFCNKLESCGYYAGFYTSLSTANNLVSAHVRNRYALWIAQWNTHCSYQGSYGLWQYSSSGSVPGVAGRVDMDYAYVDYPSIIKNVGLNGCKNGGSDQAARTSSIDEVAREVINGAWGNGNERKQRLTSAGYDYASVQNKVNELLGVKACRKSVDEIAREVIRGTWGNGSTRKQRLTQAGYDYDTVQKRVNELL | −2.5 log 10 | active |
| H5B5: natural Gardnerella prophage endolysin from strain JCP7276 (protein, EL5_strain_JCP7276, natural Gardnerella prophage endolysin from strain JCP7276) MSKKGIDVSEWQGDIDFNAVKASGVEFVIIRAGYGIGCKDKWFEQNYRKAKTAGLDVGAYWYSYANSSSEAAEEAQSCANMLSGKSFEYPVYFDLEEKSQLNRGRAFCDSLITGFCSKLEACGYYAGFYTSLSTANNLVSAHVRNRYALWIAQWNTHCSYQGSYGLWQYSSNGSVPGVAGRVDMDYAYKDYPSIIKNAGLNGCKNGGSDQAARTSSIDEVAREVINGAWGNGNERKQRLTQAGYDYTSVQNKVNKLLGVKACRKSVDELAREVIRGTWGNGNERKNRLTQAGYDYDTVQKRVNELL | −0.1 log 10 | active |
| H4B4: natural Gardnerella prophage endolysin from strain Gv5-1 (protein, EL4_strain_Gv5-1) MSKKGIDVSEWQGDIDFNAVKASGVEFVIIRAGYGIGCKDKWFEQNYRKAKTCGLDVGAYWYSYANSGFEAAEEAQSCVNMLSGKSFEYPVYFDLEEKSQLNRGRAFCDSLITSFCSKLETYGYYAGFYTSLSVVNNLVSAHVRDRYALWIAQWNTHCSYQGSYGLWQYSSSGSVPGVAGRVDMDYAYVDYPSIIKNVGLNGCKNGGSDQATRTSSIDEVAREVINGAWGNGNERKQRLTSAGYDYASVQNKVNKLLGVKAYRKSVDELAREVIRGTWGNGNERKQRLAQAGYDYDTVQKRVNELL | −0.4 log 10 | active |

Source: patent publication US20220315908A1, “NOVEL GARDNERELLA ENDOLYSINS AND USES THEREOF” (priority 2019, published 2022)
